Values of other authors as cited in publication PMC5408189.

Target: integrin α5β1 (Homo sapiens) (UniProt P08648)
Experiment: surface plasmon resonance

Chain of UniProt P08648 (P08648 42-1049, chain 1 of 2): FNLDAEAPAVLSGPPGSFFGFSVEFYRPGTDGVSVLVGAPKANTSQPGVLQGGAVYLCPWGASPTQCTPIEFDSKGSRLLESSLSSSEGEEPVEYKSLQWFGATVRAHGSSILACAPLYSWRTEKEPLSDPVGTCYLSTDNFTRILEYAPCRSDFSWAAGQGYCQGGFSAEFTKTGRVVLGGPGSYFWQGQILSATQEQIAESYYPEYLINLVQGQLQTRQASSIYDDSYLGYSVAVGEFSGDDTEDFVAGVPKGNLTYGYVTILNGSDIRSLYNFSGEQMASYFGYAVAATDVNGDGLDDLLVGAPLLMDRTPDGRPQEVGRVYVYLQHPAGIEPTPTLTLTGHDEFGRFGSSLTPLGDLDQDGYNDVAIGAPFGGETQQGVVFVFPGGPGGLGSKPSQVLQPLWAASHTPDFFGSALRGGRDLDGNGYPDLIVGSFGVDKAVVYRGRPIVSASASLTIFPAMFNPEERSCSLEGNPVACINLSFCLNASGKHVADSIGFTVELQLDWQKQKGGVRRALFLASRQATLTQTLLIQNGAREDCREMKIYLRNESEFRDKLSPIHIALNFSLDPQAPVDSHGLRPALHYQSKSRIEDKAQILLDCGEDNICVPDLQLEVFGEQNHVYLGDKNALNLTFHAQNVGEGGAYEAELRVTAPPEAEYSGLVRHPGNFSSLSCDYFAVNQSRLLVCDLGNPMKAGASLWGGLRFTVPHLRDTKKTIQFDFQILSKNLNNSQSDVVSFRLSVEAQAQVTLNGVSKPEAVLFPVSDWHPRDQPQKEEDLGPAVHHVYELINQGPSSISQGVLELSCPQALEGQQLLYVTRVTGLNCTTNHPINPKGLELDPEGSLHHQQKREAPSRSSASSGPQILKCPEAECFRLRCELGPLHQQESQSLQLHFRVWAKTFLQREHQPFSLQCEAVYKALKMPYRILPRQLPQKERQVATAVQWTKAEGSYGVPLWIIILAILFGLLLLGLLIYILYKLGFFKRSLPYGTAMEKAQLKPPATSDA
Chain of UniProt P08648 (P05556 21-798, chain 2 of 2, further chain): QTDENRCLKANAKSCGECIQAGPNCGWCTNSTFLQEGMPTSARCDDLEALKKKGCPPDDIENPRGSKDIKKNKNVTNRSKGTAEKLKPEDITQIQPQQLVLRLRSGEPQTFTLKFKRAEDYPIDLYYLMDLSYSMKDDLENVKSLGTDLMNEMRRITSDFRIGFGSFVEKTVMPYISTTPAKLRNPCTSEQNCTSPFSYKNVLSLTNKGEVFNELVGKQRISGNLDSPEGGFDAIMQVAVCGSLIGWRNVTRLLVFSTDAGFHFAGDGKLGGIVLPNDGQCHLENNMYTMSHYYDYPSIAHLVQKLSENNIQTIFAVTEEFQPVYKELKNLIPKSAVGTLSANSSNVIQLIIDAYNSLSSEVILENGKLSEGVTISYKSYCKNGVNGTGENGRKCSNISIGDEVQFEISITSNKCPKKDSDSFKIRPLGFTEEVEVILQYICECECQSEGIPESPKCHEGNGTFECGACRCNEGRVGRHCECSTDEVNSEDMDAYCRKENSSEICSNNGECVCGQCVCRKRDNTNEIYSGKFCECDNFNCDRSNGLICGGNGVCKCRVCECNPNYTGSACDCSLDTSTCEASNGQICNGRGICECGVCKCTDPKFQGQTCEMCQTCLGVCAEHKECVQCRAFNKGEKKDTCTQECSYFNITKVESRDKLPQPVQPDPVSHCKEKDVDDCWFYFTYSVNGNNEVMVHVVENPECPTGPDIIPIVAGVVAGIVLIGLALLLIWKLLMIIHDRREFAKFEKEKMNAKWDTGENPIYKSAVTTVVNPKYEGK

In the case of CagA (from UniProt P55980), the Kd is listed as 0.15 nM.
